Source: patent US5837843, “Modified protein C” (Oklahoma Medical Research Foundation, dated 1998)
Blank lines part the entries; values can stand above or below the molecule they belong to.

Experiments:
[1] = biological target: human activated protein C (APC), wild type (human, UniProt P04070, gamma carboxylglutamic acid (Gla) residues in the amino-terminal Gla domain (x in Sequence ID No. 2); Gla content 8.7±0.3 per mole for protein C); test: cell-based or functional assay

factor Va inactivation (three stage assay, residual factor Va activity in prothrombinase) (times more active than wild type APC) (factor Va): 5
Molecule: APC-PT Gla (activated chimeric protein C with the Gla domain and hydrophobic stack of prothrombin) (from UniProt P04070) (enzyme)

factor Va inactivation by APC with and without protein S [1]: 2 fold
B1: human protein S (other)
chain: ANSLLEETKQGNLERECIEELCNKEEAREVFENDPETDYFYPKYLVCLRSFQTGLFTAARQSTNAYPDLRSCVNAIPDQCSPLPCNEDGYMSCKDGKASFTCTCKPGWQGEKCEFDINECKDPSNINGGCSQICDNTPGSYHCSCKNGFVMLSNKKDCKDVDECSLKPSICGTAVCKNIPGDFECECPEGYRYNLKSKSCEDIDECSENMCAQLCVNYPGGYTCYCDGKKGFKLAQDQKSCEVVSVCLPLNLDTKYELLYLAEQFAGVVLYLKFRLPEISRFSAEFDFRTYDSEGVILYAESIDHSAWLLIALRGGKIEVQLKNEHTSKITTGGDVINNGLWNMVSVEELEHSISIKIAKEAVMDINKPGPLFKPENGLLETKVYFAGFPRKVESELIKPINPRLDGCIRSWNLMKQGASGIKEIIQEKQNKHCLVTVEKGSYYPGSGIAQFHIDYNNVSSAEGWHVNVTLNIRPSTGTGVMLALVSGNNTVPFAVSLVDSTSEKSQDILLSVENTVIYRIQALSLCSDQQSHLEFRVNRNNLELSTPLKIETISHEDLQRQLAVLDKAMKAKVATYLGGLPDVPFSATPVNAFYNGCMEVNINGVQLDLDEAISKHNDIRAHSCPSVWKKTKNS
